# In patent publication US20200317817A1 (XOMA US, published 2020):
# Positions count from the first letter of the chain named.
# T1: mouse PTH1R overexpressed on CHO cells (mouse, UniProt P41593 27-591)
# T1 sequence (looked up): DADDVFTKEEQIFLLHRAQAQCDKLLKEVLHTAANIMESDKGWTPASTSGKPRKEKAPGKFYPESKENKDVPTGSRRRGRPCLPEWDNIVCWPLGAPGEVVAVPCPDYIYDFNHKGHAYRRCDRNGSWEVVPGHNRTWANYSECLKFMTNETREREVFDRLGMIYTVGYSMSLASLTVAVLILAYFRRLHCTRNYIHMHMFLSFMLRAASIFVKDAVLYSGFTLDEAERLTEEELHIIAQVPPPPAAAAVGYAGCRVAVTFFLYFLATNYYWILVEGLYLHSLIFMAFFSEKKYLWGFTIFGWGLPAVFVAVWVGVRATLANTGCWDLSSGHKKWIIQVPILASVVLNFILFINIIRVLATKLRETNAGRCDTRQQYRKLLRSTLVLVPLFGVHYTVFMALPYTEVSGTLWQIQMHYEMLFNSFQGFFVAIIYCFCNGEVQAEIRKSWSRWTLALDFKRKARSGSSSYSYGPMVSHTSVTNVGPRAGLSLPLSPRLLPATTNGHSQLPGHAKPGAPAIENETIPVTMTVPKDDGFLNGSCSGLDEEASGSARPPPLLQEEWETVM
# T2: human PTH1R overexpressed on CHO cells (human, UniProt Q03431 27-593)
# T2 sequence (looked up): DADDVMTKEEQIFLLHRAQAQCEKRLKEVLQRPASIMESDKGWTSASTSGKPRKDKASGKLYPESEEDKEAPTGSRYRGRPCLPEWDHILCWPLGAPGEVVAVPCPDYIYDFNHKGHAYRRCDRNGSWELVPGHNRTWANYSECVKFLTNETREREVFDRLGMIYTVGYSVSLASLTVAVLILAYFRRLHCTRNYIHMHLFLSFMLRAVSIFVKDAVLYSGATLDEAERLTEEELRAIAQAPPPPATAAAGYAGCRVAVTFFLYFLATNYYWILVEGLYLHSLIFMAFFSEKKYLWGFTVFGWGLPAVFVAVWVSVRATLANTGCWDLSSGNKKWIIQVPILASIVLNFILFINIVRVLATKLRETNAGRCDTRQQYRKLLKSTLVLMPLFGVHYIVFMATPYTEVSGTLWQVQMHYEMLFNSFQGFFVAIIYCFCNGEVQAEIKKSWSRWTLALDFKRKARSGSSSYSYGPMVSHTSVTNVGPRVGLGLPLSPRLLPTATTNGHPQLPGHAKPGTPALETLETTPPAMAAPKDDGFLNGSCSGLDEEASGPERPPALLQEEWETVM
# T3: human PTH1R on Saos-2 cells (endogenous) (human, UniProt Q03431 27-593)
# T3 sequence (looked up): T2 sequence (looked up)
# T4: rat PTH1R on UMR106 cells (rat, UniProt P25961 27-591)
# T4 sequence (looked up): T1 sequence (looked up) with P58S, L497P, I518T, N520T, I523L, T528A
# T5: recombinant N-terminal extracellular domain of the human PTH1R receptor (human, UniProt Q03431 27-188, limits assumed)
# T5 construct: domain: N-terminal extracellular domain; Bought reagent; also called N-ECD PTH1R; PTH1R N-terminal ECD
# T5 sequence (looked up): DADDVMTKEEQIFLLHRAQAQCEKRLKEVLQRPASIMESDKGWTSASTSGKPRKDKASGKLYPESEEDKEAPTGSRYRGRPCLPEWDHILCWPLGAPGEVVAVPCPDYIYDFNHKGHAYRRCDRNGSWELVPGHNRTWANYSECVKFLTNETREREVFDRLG
# B1: XPA.85.340 (antibody, V domains shown)
# VH: EVQLVETGGGVVRPGGSLRLSCAASGFTFSSSAMSWVRQTPGKELQWVSAITPGGEGTYYADVVKGRFTISRDNSKDTLYLQMDSLRAEDTAVYYCARDLYGSYGDAFDIWGQGTLVTVSS
# VL: SYVLTQPPSVSVAPGQTASITCSGDNLGEKFVSWYQQKAGQSPVLVIFEDNKRPSGIPERFAGSNSGNRATLTIRGTQAEDEADYYCQAWDSSWVFGGGTQLTVL
# notes: Light-chain-shuffled variant of XPA.85.017
# B2: XPA.85.337 (antibody, V domains shown)
# VH: B1 VH
# VL: SYVLTQPPSVSVAPGQTATITCSGDDFGDKYVSWYQQKPGQSPLLVIFQDNERPSGIPERFSGSNSGNTATLTISGTQAMDEADYYCQAWDSNWVFGGGTKVTVL
# notes: as for B1
# B3: XPA.85.336 (antibody, V domains shown)
# VH: B1 VH
# VL: QSVLTQPPSVSAAPGQKVTISCSGTGSNIGSNYVAWYQQLPGTAPKLLIYDDNKRPSGTPDRFSGSKSGTSATLVIAGLQTGDEADYYCGTWDNTLNVGGVFGGGTQLTVL
# notes: as for B1
# B4: XPA.85.338 (antibody, V domains shown)
# VH: B1 VH
# VL: SYELTQPPSVSVAPGQTATITCSGDKLGDKYASWYQQKPGQSPVLVMFENRDRPSGIPDRFSGSNSGNTATLTISGTQAMDEADYYCQAWDSSTAWVFGGGTQLTVL
# notes: as for B1
# B5: XPA.85.335 (antibody, V domains shown)
# VH: B1 VH
# VL: QSVLTQPPSVSAAPGQRVTISCSGNTSNIGNNFVSWYQQLPGTAPKLLIYDDNKRPSGIPDRFSGSKSGTSATLGISGLQTGDEADYYCGTWDNSLNPPWVFGGGTQLTVL
# notes: as for B1
# B6: XPA.85.332 (antibody, V domains shown)
# VH: QMQLVQSGAEVKKPGSSVKVSCKASGGTFSSYAISWVRQAPGQGLEWMGGIIPIFGTANYAQKFQGRVTITADESTSTAYMELSSLRSEDTAVYYCARGYVVARLWGQGTLVTVSS
# VL: ETTLTQSPAFMSASVGDRVTITCQASQDINNFLNWYQQKPGKAPKFLIYDASNLEKGVPSKFSGRGSGTEFTLTISSLQPEDIATYYCQQYRDFPLTFGQGTRLEIK
# notes: Light-chain-shuffled variant of XPA.85.012
# B7: XPA.85.333 (antibody, V domains shown)
# VH: B6 VH
# VL: DVVMTQTPLSLSVTPGQPASISCKSSQSLLHIDGKAYLYWYLQKPGQSPHLLIREVSTRFSGVSDRFTGSGSGTDFTLEISRVEAEDVGVYYCMQGLHLPPTFGQGTKVEIK
# notes: as for B6
# Target: T1, mouse PTH1R overexpressed on CHO cells
# Assay: cell-based or functional assay
row,"EC50 of PTH(1-34), cAMP assay, with 267 nM IgG [nM]",Binder
1,0.614,B1
2,0.219,B2
3,0.144,B3
4,1.8,B4
5,4.54,B5

# Target: T2, human PTH1R overexpressed on CHO cells
# Assay: cell-based or functional assay
row,"EC50 of PTH(1-34), cAMP assay, with 267 nM IgG [nM]",Binder
1,0.404,B1
2,0.107,B2
3,0.0181,B3
4,0.244,B4
5,0.0429,B5

# Target: T3, human PTH1R on Saos-2 cells (endogenous)
# Assay: cell-based or functional assay
"EC50 of PTH(1-34), cAMP assay, with 267 nM IgG [nM]","EC50 of PTHrP(1-34), cAMP assay, with 267 nM IgG [nM]",Binder
4.17,11.8,B1
,27.1,B2
,23.6,B3
32.8,33,B4
,6.41,B5

# Target: T4, rat PTH1R on UMR106 cells
# Assay: cell-based or functional assay
row,"EC50 of PTH(1-34), cAMP assay, with 267 nM IgG [nM]",Binder
1,8.1,B1
2,2.88,B2
3,7.86,B4

# Target: T4, rat PTH1R on UMR106 cells
# Assay: flow cytometry, 1 hr at 4 C
row,binding result,Binder
1,binds,B6
2,binds,B7

# Target: T1, mouse PTH1R overexpressed on CHO cells
# Assay: flow cytometry on CHO cells, 24 hr at 4 C
# Experimental: (§1) To characterize antibody binding to PTH1R, cells were labeled with either CellTrace™ CFSE or CellTrace™ Violet. Unlabeled CHOK1 parent, CHO human PTH1R labeled with CellTrace™CFSE, and CHO mouse PTH1R labeled with CellTrace™Violet were pooled together and stained with increasing concentrations of antibody. Antibodies were incubated for 24 hr at 4° C. followed by two washes with FACS Buffer (0.5% BSA, 0.1% NaN3 in DPBS). Cells were then incubated with Allophycocyanin (APC) AffiniPure F(ab′)₂ Fragment Goat Anti-Human IgG (H+L) (Jackson ImmunoResearch, West Grove, Pa.) for 20 minutes at 4° C. Followed by two washes, cells were resuspended in FACS Buffer. Samples were acquired using BD Cytometer (BD Biosciences, San Jose, Calif.) and data were analyzed using FlowJo (FlowJo, LLC, Ashland, Oreg.) and Prism (GraphPad Software, La Jolla, Calif.).
row,EC50 [nM],Binder
1,0.322,B1
2,3.27,B2
3,14.7,B3
4,0.68,B4
5,0.384,B5

# Target: T2, human PTH1R overexpressed on CHO cells
# Assay: flow cytometry on CHO cells, 24 hr at 4 C
# Experimental: as §1
row,EC50 [nM],Binder
1,0.167,B1
2,1.26,B2
3,0.342,B3
4,0.181,B4
5,0.265,B5

# Target: T5, recombinant N-terminal extracellular …
# Assay: SPR, IgG captured, ECD injected
# Experimental: An anti-human IgG-Fc CMS sensor chip (GE Healthcare) was prepared using standard amine coupling as described by the manufacturer's protocol for the capture Ab on a BIACORE 4000 system (GE Healthcare). Briefly, the chip surface was activated with a 10 minute injection at 10 μL/minute of a freshly mixed 1:1 solution of 0.1 M N-Hydroxysuccinimide (NHS) and 0.4 M 1-Ethyl-3-(3-dimethylaminopropyl) carbodiimide hydrochloride (EDC). Following the activation injection, 15 ug/mL anti-human IgG-Fc antibody in acetate pH 4.5 was injected at 10 μL/minute for 10 minutes to achieve a high density capture surface. 7 minutes of 1M Ethanolamine hydrochloride-NaOH pH 8.5 was injected to block the surface. The NHS, EDC, and Ethanolamine used were from the BIACORE Amine Coupling Kit.
# Kinetic Analysis was performed using HBS-EP+(Teknova) with 2.5 mg/mL BSA (Sigma Aldrich, St. Louis Mo.). Antibodies were diluted to 0.5 μg/mL and captured to achieve a surface density of 100 to 200 RU. […] Injections were performed at 30 μL/minute for 240 seconds with a 360 second dissociation time. Regeneration was then performed with one 60 second injection 3M MgCl.
# The data were analyzed using BIACORE 4000 Evaluation Software and was double referenced by subtracting both the blank flow cell data and the averaged bracketing blank injections. The data was fit by simultaneously fitting the an off-rate (kd) and on-rate (kₐ), and calculating the KD as KD=kd/kₐ.
Kd [nM],koff [s⁻¹],kon [M⁻¹ s⁻¹],Binder
0.71,0.0017,2.4e+06,B6
0.3,0.00054,1.8e+06,B7
0.75,0.0011,1.4e+06,B1
0.75,0.00046,610000,B2
17,0.019,1.1e+06,B3
0.43,0.00057,1.3e+06,B4
2.4,0.0019,800000,B5

# Target: T1, mouse PTH1R overexpressed on CHO cells
# Assay: cell-based or functional assay
# Remark: another data set of the same source
row,"IC50, inhibition of PTHrP(1-34)-induced cAMP accumulation [nM]",Binder
1,2.3,B6
2,2.04,B7

# Target: T2, human PTH1R overexpressed on CHO cells
# Assay: cell-based or functional assay
# Remark: another data set of the same source
"IC50, inhibition of PTH(1-34)-induced cAMP accumulation [nM]","IC50, inhibition of PTHrP(1-34)-induced cAMP accumulation [nM]",Binder
12.1,5.03,B6
11.4,5.61,B7
